Reference: paper PMC5938345

Experiments:
[1] = target: gp350-ECD123-6His (Epstein-Barr virus (strain M81)) (UniProt P03200); experiment: SPR; Biacore T200; the three recombinant gp350s immobilised on CM5 chip at pH 5.5 with low RU to avoid avidity; MBP-hCR2 SCR1-2 injected at 30 µl/min; regeneration with 10 mM glycine-HCl pH 1.5; 1:1 fit
[2] = target: gp350-ECDFL-Fc_(mIgG2a) (Epstein-Barr virus (strain M81) | mouse) (UniProt P03200); experiment: as above
[3] = target: gp350-ECD123-Fc_(mIgG2a) (Epstein-Barr virus (strain M81) | mouse) (UniProt P03200); experiment: as above
[4] = target: gp350-ECD123-Fc_(mIgG2a) (Epstein-Barr virus (strain M81) | mouse) (UniProt P03200); experiment: AUC; sedimentation velocity, 20°C, PBS, 35,000 rpm, samples diluted to 1 OD at 280 nm; c(s) and c(M) in Sedfit
[5] = target: gp350-ECD123-Fc_(mIgG2a) (Epstein-Barr virus (strain M81) | mouse) (UniProt P03200); experiment: SDS-PAGE under reducing and non-reducing conditions with Western blot; 15 µl supernatants of passage 1 baculovirus stocks, with and without β-ME, 10% SDS-PAGE; detected by anti-His or anti-mouse Fc antibody
[6] = target: gp350-ECDFL-Fc_(mIgG2a) (Epstein-Barr virus (strain M81) | mouse) (UniProt P03200); experiment: AUC; sedimentation velocity, 20°C, PBS, 35,000 rpm, samples diluted to 1 OD at 280 nm; c(s) and c(M) in Sedfit
[7] = target: gp350-ECDFL-Fc_(mIgG2a) (Epstein-Barr virus (strain M81) | mouse) (UniProt P03200); experiment: SDS-PAGE under reducing and non-reducing conditions with Western blot; 15 µl supernatants of passage 1 baculovirus stocks, with and without β-ME, 10% SDS-PAGE; detected by anti-His or anti-mouse Fc antibody

Substance: MBP-hCR2 SCR1-2 (domain or fragment)
- Kd [1]: 294 nM
- koff [1]: 0.00141 s⁻¹
- kon [1]: 4780 M⁻¹ s⁻¹
- Kd [2]: 68.5 nM
- koff [2]: 0.0012 s⁻¹
- kon [2]: 17600 M⁻¹ s⁻¹
- Kd [3]: 94.6 nM
- koff [3]: 0.00383 s⁻¹
- kon [3]: 40500 M⁻¹ s⁻¹

Substance: gp350-ECD123-Fc_(mIgG2a) (from UniProt P03200-1 1-425) (Fc fusion)
- stoichiometry N [4]: 2
- stoichiometry N [5]: 2

Substance: gp350-ECDFL-Fc_(mIgG2a) (from UniProt P03200-1 1-803) (Fc fusion)
- stoichiometry N [6]: 2
- stoichiometry N [7]: 2
